Source: paper PMC7048804

Experiments:
[1] = target: XPF–ERCC1 complex (human) (UniProt Q92889)
[2] = target: XPF–ERCC1 mutant 323–326Δ^XPF (human) (UniProt Q92889)
[3] = target: ERCC1 (human) (UniProt P07992)
UniProt P07992, sequence (P07992 other isoform, or with tags, fused parts or gaps): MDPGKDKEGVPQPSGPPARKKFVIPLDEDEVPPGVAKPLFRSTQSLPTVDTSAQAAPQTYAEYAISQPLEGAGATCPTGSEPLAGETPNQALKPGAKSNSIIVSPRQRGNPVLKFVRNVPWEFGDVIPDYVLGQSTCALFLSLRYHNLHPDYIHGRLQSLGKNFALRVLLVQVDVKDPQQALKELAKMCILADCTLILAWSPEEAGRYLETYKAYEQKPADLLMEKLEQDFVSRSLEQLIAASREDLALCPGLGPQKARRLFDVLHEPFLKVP

Binder | catalytic efficiency kcat/Km of XPF–ERCC1–SLX4^NTD on a stem–loop DNA substrate, real-time fluorescence incision assay (XPF–ERCC1 alone: 1.73) [1] [M⁻¹ s⁻¹] | catalytic efficiency kcat/Km of XPF(323–326 Δ)–ERCC1–SLX4^NTD on a stem–loop DNA substrate, real-time fluorescence incision assay [2] [M⁻¹ s⁻¹] | catalytic efficiency kcat/Km of XPF(S312A)–ERCC1 on a stem–loop DNA substrate, real-time fluorescence incision assay (wild type: 1.73) [3] [M⁻¹ s⁻¹]
SLX4^NTD (residues 1–758) (domain or fragment) MKLSVNEAQLGFYLGSLSHLSACPGIDPRSSEDQPESLKTGQMMDESDEDFKELCASFFQRVKKHGIKEVSGERKTQKAASNGTQIRSKLKRTKQTATKTKTLQGPAEKKPPSGSQAPRTKKQRVTKWQASEPAHSVNGEGGVLASAPDPPVLRETAQNTQTGNQQEPSPNLSREKTRENVPNSDSQPPPSCLTTAVPSPSKPRTAQLVLQRMQQFKRADPERLRHASEECSLEAAREENVPKDPQEEMMAGNVYGLGPPAPESDAAVALTLQQEFARVGASAHDDSLEEKGLFFCQICQKNLSAMNVTRREQHVNRCLDEAEKTLRPSVPQIPECPICGKPFLTLKSRTSHLKQCAVKMEVGPQLLLQAVRLQTAQPEGSSSPPMFSFSDHSRGLKRRGPTSKKEPRKRRKVDEAPSEDLLVAMALSRSEMEPGAAVPALRLESAFSERIRPEAENKSRKKKPPVSPPLLLVQDSETTGRQIEDRVALLLSEEVELSSTPPLPASRILKEGWERAGQCPPPPERKQSFLWEGSALTGAWAMEDFYTARLVPPLVPQRPAQGLMQEPVPPLVPPEHSELSERRSPALHGTPTAGCGSRGPSPSASQREHQALQDLVDLAREGLSASPWPGSGGLAGSEGTAGLDVVPGGLPLTGFVVPSQDKHPDRGGRTLLSLGLLVADFGAMVNNPHLSDVQFQTDSGEVLYAHKFVLYARCPLLIQYVNNEGFSAVEDGVLTQRVLLGDVSTEAARTFLHYLYTA | 1.73e+08 | 5e+06 | 
XPF S312A (enzyme) MESGQPARRIAMAPLLEYERQLVLELLDTDGLVVCARGLGADRLLYHFLQLHCHPACLVLVLNTQPAEEEYFINQLKIEGVEHLPRRVTNEITSNSRYEVYTQGGVIFATSRILVVDFLTDRIPSDLITGILVYRAHRIIESCQEAFILRLFRQKNKRGFIKAFTDNAVAFDTGFCHVERVMRNLFVRKLYLWPRFHVAVNSFLEQHKPEVVEIHVSMTPTMLAIQTAILDILNACLKELKCHNPSLEVEDLSLENAIGKPFDKTIRHYLDPLWHQLGAKTKSLVQDLKILRTLLQYLSQYDCVTFLNLLEALRATEKAFGQNSGWLFLDSSTSMFINARARVYHLPDAKMSKKEKISEKMEIKEGEETKKELVLESNPKWEALTEVLKEIEAENKESEALGGPGQVLICASDDRTCSQLRDYITLGAEAFLLRLYRKTFEKDSKAEEVWMKFRKEDSSKRIRKSHKRPKDPQNKERASTKERTLKKKKRKLTLTQMVGKPEELEEEGDVEEGYRREISSSPESCPEEIKHEEFDVNLSSDAAFGILKEPLTIIHPLLGCSDPYALTRVLHEVEPRYVVLYDAELTFVRQLEIYRASRPGKPLRVYFLIYGGSTEEQRYLTALRKEKEAFEKLIREKASMVVPEEREGRDETNLDLVRGTASADVSTDTRKAGGQEQNGTQQSIVVDMREFRSELPSLIHRRGIDIEPVTLEVGDYILTPEMCVERKSISDLIGSLNNGRLYSQCISMSRYYKRPVLLIEFDPSKPFSLTSRGALFQEISSNDISSKLTLLTLHFPRLRILWCPSPHATAELFEELKQSKPQPDAATALAITADSETLPESEKYNPGPQDFLLKMPGVNAKNCRSLMHHVKNIAELAALSQDELTSILGNAANAKQLYDFIHTSFAEVVSKGKGKK |  |  | 4.42e+07
